Assay results: patent US20240270857A1 (CHIA TAI TIANQING PHARMACEUTICAL GROUP, published 2024)
Substitutions are numbered along the chain they refer to.

T1: cynomolgus IL-36R overexpressed on 293T-CynoIL36R-NFκB cells (cynomolgus monkey)
T1 construct: Entry includes the signal peptide; also called monkey IL-36R
T1 chain: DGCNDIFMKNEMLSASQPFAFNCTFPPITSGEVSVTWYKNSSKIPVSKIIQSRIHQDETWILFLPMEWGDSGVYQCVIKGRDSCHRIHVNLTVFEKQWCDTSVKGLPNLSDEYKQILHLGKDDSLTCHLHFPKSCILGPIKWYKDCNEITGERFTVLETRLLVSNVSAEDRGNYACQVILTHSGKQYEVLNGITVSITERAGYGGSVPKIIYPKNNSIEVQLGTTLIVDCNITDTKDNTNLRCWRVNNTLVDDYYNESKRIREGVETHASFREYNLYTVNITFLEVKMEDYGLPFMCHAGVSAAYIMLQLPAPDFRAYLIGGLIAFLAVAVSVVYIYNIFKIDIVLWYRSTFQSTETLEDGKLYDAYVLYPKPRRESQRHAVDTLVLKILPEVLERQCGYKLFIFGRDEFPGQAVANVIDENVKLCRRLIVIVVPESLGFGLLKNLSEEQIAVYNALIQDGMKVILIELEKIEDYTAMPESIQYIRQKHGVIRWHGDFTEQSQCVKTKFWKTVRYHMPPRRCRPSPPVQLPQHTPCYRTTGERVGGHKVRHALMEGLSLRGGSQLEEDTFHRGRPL

T2: human IL-36R overexpressed on 293T-hIL36R-NFκB cells (human, UniProt Q9HB29 20-575)
T2 construct: Entry includes the signal peptide; also called IL1RL2; IL-1Rrp2
T2 sequence: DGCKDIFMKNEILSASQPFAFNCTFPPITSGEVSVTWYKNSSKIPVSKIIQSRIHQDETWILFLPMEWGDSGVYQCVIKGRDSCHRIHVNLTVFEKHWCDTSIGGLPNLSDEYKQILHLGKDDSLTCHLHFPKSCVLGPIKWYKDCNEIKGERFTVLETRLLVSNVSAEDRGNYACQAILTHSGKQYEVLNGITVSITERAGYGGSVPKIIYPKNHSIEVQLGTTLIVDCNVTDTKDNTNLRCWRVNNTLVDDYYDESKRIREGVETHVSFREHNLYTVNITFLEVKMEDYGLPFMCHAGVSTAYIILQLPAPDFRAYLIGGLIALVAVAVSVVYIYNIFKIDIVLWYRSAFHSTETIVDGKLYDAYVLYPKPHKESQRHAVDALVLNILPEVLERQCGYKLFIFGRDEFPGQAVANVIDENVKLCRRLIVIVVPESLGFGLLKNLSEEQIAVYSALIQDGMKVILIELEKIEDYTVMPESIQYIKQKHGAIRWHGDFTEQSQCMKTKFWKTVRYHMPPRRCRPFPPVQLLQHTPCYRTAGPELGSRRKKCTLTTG

T3: Human IL-1Rrp2/IL-1R6 protein, His Tag (ACROBiosystems, IL2-H52H6) (human, UniProt Q9HB29 20-335)
T3 construct: Bought protein; the soluble protein is likely only the extracellular part; also called hIL-36R; human IL36R antigen; not shown: His tag
T3 sequence: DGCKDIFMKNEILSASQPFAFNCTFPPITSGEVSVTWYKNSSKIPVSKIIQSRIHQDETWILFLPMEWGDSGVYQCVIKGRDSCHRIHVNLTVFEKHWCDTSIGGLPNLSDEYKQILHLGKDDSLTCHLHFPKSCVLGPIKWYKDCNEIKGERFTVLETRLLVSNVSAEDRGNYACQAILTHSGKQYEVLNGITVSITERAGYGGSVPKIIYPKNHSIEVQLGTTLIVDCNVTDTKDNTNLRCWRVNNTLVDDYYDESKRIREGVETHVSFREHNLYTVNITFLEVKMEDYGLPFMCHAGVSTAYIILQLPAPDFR

B1: BI655130 (antibody, human IgG1, kappa, L234A L235A)
heavy: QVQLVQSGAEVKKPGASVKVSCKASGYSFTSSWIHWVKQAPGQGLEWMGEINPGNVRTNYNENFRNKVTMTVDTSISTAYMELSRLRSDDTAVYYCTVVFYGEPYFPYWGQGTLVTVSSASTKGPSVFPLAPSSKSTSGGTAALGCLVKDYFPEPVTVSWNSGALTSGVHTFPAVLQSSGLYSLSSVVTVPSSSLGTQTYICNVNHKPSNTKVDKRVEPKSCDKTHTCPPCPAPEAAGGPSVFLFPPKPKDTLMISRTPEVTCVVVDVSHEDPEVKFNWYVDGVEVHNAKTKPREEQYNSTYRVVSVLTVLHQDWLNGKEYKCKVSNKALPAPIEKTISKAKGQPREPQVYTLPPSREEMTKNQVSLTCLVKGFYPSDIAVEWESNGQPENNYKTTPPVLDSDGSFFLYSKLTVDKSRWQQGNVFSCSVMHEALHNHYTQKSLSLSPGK
light: QIVLTQSPGTLSLSPGERATMTCTASSSVSSSYFHWYQQKPGQAPRLWIYRTSRLASGVPDRFSGSGSGTDFTLTISRLEPEDAATYYCHQFHRSPLTFGAGTKLEIKRTVAAPSVFIFPPSDEQLKSGTASVVCLLNNFYPREAKVQWKVDNALQSGNSQESVTEQDSKDSTYSLSSTLTLSKADYEKHKVYACEVTHQGLSSPVTKSFNRGEC
notes: also called Spesolimab
B2: hz84C4-1.1 (antibody, human IgG4 S228P, kappa, V domains shown)
VH: QVQLVQSGAEVKKPGASVKVSCKASGYFFTSYWMNWVRQAPGQGLEWMGMIHPYDSETRYAQKFQGRVTMTVDKSTSTVYMELSSLRSEDTAVYYCASSTTAFAYWGQGTLVTVSS
VL: DIQMTQSPSSLSASVGDRVTITCRASQDIGNALNWYQQKPGKAPKRLIYATSSLDPGVPSRFSGSRSGTDFTLTISSLQPEDFATYYCLQYASSPYTFGQGTKVEIKR
notes: Humanized, human IgG4 / kappa
B3: hz84C4-2.3 (antibody, human IgG4 S228P, kappa, V domains shown)
VH: B2 VH with H52Y
VL: B2 VL with Y36L, F71Y
notes: Humanized, human IgG4 / kappa
B4: hz84C4-1.3 (antibody, human IgG4 S228P, kappa, V domains shown)
VH: B2 VH with H52Y
VL: B2 VL
notes: Humanized, human IgG4 / kappa
B5: hz84C4-2.4 (antibody, human IgG4 S228P, kappa, V domains shown)
VH: B2 VH with F28Y, Y60L, Q65K
VL: B2 VL with Y36L, F71Y
notes: Humanized, human IgG4 / kappa
B6: hz84C4-1.5 (antibody, human IgG4 S228P, kappa, V domains shown)
VH: B2 VH with A24V, R38N, Y60L, Q65K
VL: B2 VL
notes: Humanized, human IgG4 / kappa
B7: hz84C4-1.4 (antibody, human IgG4 S228P, kappa, V domains shown)
VH: B2 VH with F28Y, Y60L, Q65K
VL: B2 VL
notes: Humanized, human IgG4 / kappa
B8: hz84C4-1.2 (antibody, human IgG4 S228P, kappa, V domains shown)
VH: B2 VH with M50Y
VL: B2 VL
notes: Humanized, human IgG4 / kappa
B9: hz84C4-2.2 (antibody, human IgG4 S228P, kappa, V domains shown)
VH: B2 VH with M50Y
VL: B2 VL with Y36L, F71Y
notes: Humanized, human IgG4 / kappa
B10: hz84C4-2.5 (antibody, human IgG4 S228P, kappa, V domains shown)
VH: B2 VH with A24V, R38N, Y60L, Q65K
VL: B2 VL with Y36L, F71Y
notes: Humanized, human IgG4 / kappa
B11: hz84C4-2.1 (antibody, human IgG4 S228P, kappa, V domains shown)
VH: B2 VH
VL: B2 VL with Y36L, F71Y
notes: Humanized, human IgG4 / kappa
B12: hz72C1-1.2 (antibody, human IgG4 S228P, kappa)
heavy: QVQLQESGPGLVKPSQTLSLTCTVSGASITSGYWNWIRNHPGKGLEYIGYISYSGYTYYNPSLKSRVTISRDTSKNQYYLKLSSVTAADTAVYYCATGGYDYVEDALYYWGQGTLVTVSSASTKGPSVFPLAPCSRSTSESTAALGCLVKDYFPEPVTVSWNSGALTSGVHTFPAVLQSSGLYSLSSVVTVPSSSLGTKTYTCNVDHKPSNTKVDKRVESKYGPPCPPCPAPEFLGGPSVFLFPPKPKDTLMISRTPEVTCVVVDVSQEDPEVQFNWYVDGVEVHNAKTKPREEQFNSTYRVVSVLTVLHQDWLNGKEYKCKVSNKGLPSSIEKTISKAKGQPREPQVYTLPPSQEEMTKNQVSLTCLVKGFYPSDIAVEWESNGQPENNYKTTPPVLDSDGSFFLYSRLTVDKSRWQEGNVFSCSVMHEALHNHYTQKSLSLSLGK
light: DIQMTQSPSSLSASVGDRVTITCRASSNVRYMYWYQQKPGKAPKLWIYLTSNLASGVPSRFSGSGSGTSYTLTISSLQPEDFATYYCQQFTTSPYTFGQGTKLEIKRTVAAPSVFIFPPSDEQLKSGTASVVCLLNNFYPREAKVQWKVDNALQSGNSQESVTEQDSKDSTYSLSSTLTLSKADYEKHKVYACEVTHQGLSSPVTKSFNRGEC
notes: Humanized, human IgG4 / kappa
B13: hz72C1-2.2 (antibody, human IgG4 S228P, kappa)
heavy: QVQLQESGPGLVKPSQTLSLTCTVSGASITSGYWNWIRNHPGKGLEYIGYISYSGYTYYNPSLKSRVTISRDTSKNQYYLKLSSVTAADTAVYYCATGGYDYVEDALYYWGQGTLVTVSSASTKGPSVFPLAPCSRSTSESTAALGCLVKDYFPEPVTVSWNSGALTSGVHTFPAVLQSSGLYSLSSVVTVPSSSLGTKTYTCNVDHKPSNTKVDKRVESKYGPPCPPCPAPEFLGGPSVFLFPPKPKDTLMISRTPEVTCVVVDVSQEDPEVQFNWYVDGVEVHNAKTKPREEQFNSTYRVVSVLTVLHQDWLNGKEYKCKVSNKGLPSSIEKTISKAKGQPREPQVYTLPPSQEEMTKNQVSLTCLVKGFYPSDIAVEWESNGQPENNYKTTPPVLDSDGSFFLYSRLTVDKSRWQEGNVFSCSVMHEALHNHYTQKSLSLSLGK
light: B12 light with F90Y
notes: Humanized, human IgG4 / kappa
B14: hz72C1-1.3 (antibody, human IgG4 S228P, kappa)
heavy: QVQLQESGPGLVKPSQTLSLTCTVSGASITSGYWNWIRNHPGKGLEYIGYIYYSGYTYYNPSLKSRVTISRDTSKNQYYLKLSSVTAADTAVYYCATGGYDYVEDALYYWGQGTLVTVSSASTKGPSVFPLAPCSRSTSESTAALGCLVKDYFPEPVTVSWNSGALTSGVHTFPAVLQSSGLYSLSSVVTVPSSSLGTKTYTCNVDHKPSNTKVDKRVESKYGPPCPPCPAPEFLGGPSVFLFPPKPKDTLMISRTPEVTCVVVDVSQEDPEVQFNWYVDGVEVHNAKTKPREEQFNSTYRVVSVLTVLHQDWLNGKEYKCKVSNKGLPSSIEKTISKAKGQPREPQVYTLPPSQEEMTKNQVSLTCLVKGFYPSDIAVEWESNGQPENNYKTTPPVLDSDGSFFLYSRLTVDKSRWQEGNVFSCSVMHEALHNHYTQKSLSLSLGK
light: B12 light
notes: Humanized, human IgG4 / kappa
B15: hz72C1-2.1 (antibody, human IgG4 S228P, kappa)
heavy: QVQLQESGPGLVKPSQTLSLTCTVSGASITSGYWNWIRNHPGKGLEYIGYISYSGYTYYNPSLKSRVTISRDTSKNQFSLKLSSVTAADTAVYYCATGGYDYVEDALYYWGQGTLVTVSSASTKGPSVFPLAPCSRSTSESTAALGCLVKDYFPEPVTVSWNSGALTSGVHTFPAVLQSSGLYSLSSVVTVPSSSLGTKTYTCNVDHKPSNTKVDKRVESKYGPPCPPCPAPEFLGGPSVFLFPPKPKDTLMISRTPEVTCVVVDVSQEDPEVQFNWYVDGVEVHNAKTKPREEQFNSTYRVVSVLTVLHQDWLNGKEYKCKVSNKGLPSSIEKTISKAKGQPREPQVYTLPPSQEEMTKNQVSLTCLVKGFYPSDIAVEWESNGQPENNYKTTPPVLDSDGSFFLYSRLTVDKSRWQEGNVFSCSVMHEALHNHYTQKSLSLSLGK
light: B12 light with F90Y
notes: Humanized, human IgG4 / kappa
B16: hz72C1-1.1 (antibody, human IgG4 S228P, kappa)
heavy: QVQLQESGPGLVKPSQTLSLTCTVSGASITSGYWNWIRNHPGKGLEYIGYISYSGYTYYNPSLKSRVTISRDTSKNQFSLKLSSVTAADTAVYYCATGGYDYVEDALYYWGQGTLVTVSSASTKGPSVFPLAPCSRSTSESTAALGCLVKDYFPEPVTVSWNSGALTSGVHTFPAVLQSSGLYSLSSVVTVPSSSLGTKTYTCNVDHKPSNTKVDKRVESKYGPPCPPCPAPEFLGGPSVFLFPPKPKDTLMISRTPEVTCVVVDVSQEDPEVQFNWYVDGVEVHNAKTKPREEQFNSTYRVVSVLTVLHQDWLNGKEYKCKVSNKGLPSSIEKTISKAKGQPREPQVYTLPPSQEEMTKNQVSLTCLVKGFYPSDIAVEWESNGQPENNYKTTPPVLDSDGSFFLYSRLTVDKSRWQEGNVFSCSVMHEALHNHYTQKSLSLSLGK
light: B12 light
notes: Humanized, human IgG4 / kappa; also called humanized 72C1 antibody 1.1
B17: hz72C1-2.3 (antibody, human IgG4 S228P, kappa)
heavy: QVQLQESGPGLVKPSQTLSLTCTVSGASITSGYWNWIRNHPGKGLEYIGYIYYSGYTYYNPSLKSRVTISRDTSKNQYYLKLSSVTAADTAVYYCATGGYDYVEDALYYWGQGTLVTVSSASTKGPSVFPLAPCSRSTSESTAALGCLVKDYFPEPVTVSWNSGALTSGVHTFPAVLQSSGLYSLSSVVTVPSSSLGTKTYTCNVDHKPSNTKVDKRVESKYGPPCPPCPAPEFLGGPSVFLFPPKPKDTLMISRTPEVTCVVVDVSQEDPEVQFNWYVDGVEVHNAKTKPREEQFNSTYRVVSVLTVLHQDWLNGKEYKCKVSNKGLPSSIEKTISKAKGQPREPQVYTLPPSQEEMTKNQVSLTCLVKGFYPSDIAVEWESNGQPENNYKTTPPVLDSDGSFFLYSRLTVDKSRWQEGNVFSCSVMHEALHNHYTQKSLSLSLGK
light: B12 light with F90Y
notes: Humanized, human IgG4 / kappa
B18: chimeric 72C1 antibody (antibody, human IgG4 S228P, kappa)
heavy: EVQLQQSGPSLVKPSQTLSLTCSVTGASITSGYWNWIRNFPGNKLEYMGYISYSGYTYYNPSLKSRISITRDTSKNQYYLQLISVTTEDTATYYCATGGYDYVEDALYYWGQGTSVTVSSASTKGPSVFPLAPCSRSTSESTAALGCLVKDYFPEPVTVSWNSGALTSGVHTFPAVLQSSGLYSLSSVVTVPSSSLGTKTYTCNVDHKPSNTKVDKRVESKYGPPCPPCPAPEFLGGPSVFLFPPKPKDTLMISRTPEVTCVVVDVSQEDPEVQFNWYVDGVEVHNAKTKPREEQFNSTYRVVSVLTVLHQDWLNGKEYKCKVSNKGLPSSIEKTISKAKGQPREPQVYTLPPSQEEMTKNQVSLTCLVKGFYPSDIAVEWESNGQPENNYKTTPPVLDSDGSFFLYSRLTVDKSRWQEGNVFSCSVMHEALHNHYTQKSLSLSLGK
light: EILLTQSPAIMSATLGEKVTMSCRASSNVRYMYWYQLKSGASPKLWIYLTSNLASGVPARFSGSGSGTSYSLTISSVEAEDAATYFCQQFTTSPYTFGGGTKLEIKRTVAAPSVFIFPPSDEQLKSGTASVVCLLNNFYPREAKVQWKVDNALQSGNSQESVTEQDSKDSTYSLSSTLTLSKADYEKHKVYACEVTHQGLSSPVTKSFNRGEC
notes: Mouse variable regions on human IgG4 / kappa; also called xi72C1

Target: T1, cynomolgus IL-36R overexpressed on …
Assay: FACS on 293T-CynoIL36R-NFκB cells, ratio of MFI to background MFI
Protocol: (§1) After the cells was washed with PBS, the cells were resuspended with 100 μL of PBS and then the fluorescence signal was detected using a flow cytometer (BD, Accuri C6). […] The ratio was the ratio of mean fluorescence intensity (MFI) of the experimental group/the background MFI, and the resulting data were analyzed using GraphPad Prism.
(§2) Affinity, binding and blocking assays for humanized antibodies hz72C1-1.1, hz72C1-1.2, hz72C1-1.3, hz72C1-2.1, hz72C1-2.2 and hz72C1-2.3 as well as hz84C4-1.1, hz84C4-1.2, hz84C4-1.3, hz84C4-1.4, hz84C4-1.5, hz84C4-2.1, hz84C4-2.2, hz84C4-2.3, hz84C4-2.4 and hz84C4-2.5 were performed according to the methods of Example 4, Example 5. Example 6, Example 7 and Example 8.

| EC50 | Binder |
| --- | --- |
| 7.64 nM | B1 |
| 18 nM | B2 |
| 176 nM | B3 |
| 9.22 nM | B4 |
| 48.2 nM | B5 |
| 10.5 nM | B6 |
| 24.4 nM | B7 |
| 37.3 nM | B8 |
| 17.1 nM | B9 |
| 11.9 nM | B10 |
| 5.75 nM | B11 |

target: T2, human IL-36R overexpressed on …; assay: FACS on 293T-hIL36R-NFκB cells, ratio of MFI to background MFI
Protocol: as §1, §2

| EC50 | Binder |
| --- | --- |
| 9.82 nM | B1 |
| ~5.28 nM | B2 |
| 14.5 nM | B3 |
| 18.2 nM | B4 |
| ~5.26 nM | B5 |
| ~5.1 nM | B6 |
| 5.75 nM | B7 |
| 6 nM | B8 |
| ~5.23 nM | B9 |
| ~5.04 nM | B10 |
| ~5.22 nM | B11 |

target: T2, human IL-36R overexpressed on …; assay: as above; remark: another data set of the same source
Protocol: as §1, §2

| EC50 | Binder |
| --- | --- |
| 5.13 nM | B1 |
| 11.9 nM | B12 |
| 17.6 nM | B13 |
| 11.9 nM | B14 |
| 19.3 nM | B15 |
| 11.6 nM | B16 |
| 20.2 nM | B17 |

target: T3, Human IL-1Rrp2/IL-1R6 protein, His Tag …; assay: BLI (ForteBio Octet), antibody on ProA sensor, 1:1 model
Protocol: The affinity of anti-IL-36R antibodies to CynoIL36R-ECD mFc and human IL-1Rrp2/IL-IR6 protein, His Tag (ACROBiosystems, IL2-H52H6) was measured by a ForteBio molecular interaction instrument. […] And then the biosensor was used to bind CynoIL36R-ECD mFc or human IL-1Rrp2/IL-1R6 protein, His Tag which was diluted by a gradient (the initial concentration was 200 nM, 2-fold gradient dilution), the response signals were detected in real time using a Fortebio molecular interaction instrument (SARTORIUS, octet red 96e), and association and dissociation curves were obtained. After the completion of dissociation in each cycle, the biosensor was regenerated for the next capture; the procedure was repeated until the affinity of the different anti-IL-36R antibodies for IL-36R was determined. The resulting data were analyzed by Fortebio Data Analysis 11.0 software in a 1:1 (Langmuir) binding model to determine kₐ (kₒₙ) and kd (koff) values, and the dissociation constant KD was calculated by KD=kd/kₐ. The detection method essentially followed the manufacturer's recommendations, and more information could be found at www.fortebio.com.
as §2

| Kd | koff | kon | Binder |
| --- | --- | --- | --- |
| 0.736 nM | 4.38e-05 s⁻¹ | 59600 M⁻¹ s⁻¹ | B18 |
| 0.245 nM | 1.57e-05 s⁻¹ | 64100 M⁻¹ s⁻¹ | B1 |
| 0.0351 nM | 3.91e-06 s⁻¹ | 111000 M⁻¹ s⁻¹ | B12 |
| < 0.001 nM | < 1e-07 s⁻¹ | 62400 M⁻¹ s⁻¹ | B13 |
| 0.0743 nM | 8.8e-06 s⁻¹ | 119000 M⁻¹ s⁻¹ | B14 |
| 0.0111 nM | 7.81e-07 s⁻¹ | 70400 M⁻¹ s⁻¹ | B15 |
| 0.16 nM | 1.81e-05 s⁻¹ | 113000 M⁻¹ s⁻¹ | B16 |
| 0.177 nM | 1.12e-05 s⁻¹ | 63300 M⁻¹ s⁻¹ | B17 |
